B1: 2D7 neutralizing antibody (antibody, V domains shown)
VH: VQLQESGPGLVKPSQSLSLTCTVTGYSITSDYTWNWIRQFPGNKLEWMGYISYSGSTSYNPSLKSRMSITRDTSKNQFLLQLNSVTTADTATYYCTRDGPYWHIDVWGAGTTVTVSS
VL: DIQMNQSPSSLSASLGDTITITCHASQTINIWLSWYQLKPGNIPKLLIYKASNLHTGVPSRFSGSGSGTGFTLTISSLQPEDIASYYCQQGQSFPYTFGGGTKLEIK
notes: whole murine IgG
B2: 1H9 neutralizing antibody (antibody, V domains shown)
VH: VQLQESGPGLVKPSQSLSLTCTVTGYSITSDYTWNWIRQFPGNKLEWMGYITYSDTTSYNPSLKSRISITRDTSKNQFFLQLNSVTTEDTATYYCARSDGWYGFAYWGQGTLVTVSA
VL: DIQMNQSPSSLSASLGDTITITCHASQNINVWLSWYQQKPGNIPKLLIYKAFDLHTGVPSRFSGSGSGTGFTLTISSLQPEDIATYYCQQGQTYPFTFGGGTKLEIK
notes: also called nAb 1H9; source: mouse hybridoma, ascites of BALB/c mice, purified (protein G agarose)

Tests used:
[1] = target: T1, hemagglutinin of A/chicken/Guangdong/SD008/2017 (H7N9) (Influenza A virus …, UniProt A0A2D0Z8H0, strain); test: ELISA; conditions: both partners purified
[2] = target: SD008 HA expressed from pcDNA 3.1-SD008-HA (Influenza A virus …, UniProt A0A2D0Z8H0, strain); test: immunostaining of cells or tissue; conditions: one partner purified
[3] = target: T1, hemagglutinin of …; test: flow cytometry on cells; conditions: one partner purified

Row | Binder | binding result [1] | binding result [2] | binding result [3]
1 | B1 | binds | binds | 
2 | B2 |  | binds | binds

Source: paper PMC11784312 (Journal of Virology, 2024)
